Reference: the supplement of paper PMC9170038

Tested on: MS2 coat protein
Assay: apparent KD of MS2 coat protein; designed switch direction (-1 OFF switch, 1 ON switch): 1; higher = weaker reporter binding
Method in brief: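 Transcription of designed RNA switches on Illumina chips was done by stalled E. coli RNA polymerase. SNAP-549-labelled MS2 coat protein was then titrated in doubling steps from 0.7 or 1.5 nM to 3 µM, with steps of 0.8–1.5 h at the lowest and 10–20 min at the highest concentration. The per-design median over clusters of curve-fitted normalised fluorescence is reported as apparent KD.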

[1] = Eterna round: R95, input ligand: FMN 200 uM
[2] = Eterna round: R95, input ligand: microRNA oligo, concentration not stated
[3] = Eterna round: R95, input ligand: none
[4] = input ligand: microRNA oligo, concentration not stated

Row | Sequence | apparent KD of MS2 coat protein [1] | apparent KD of MS2 coat protein [2] | apparent KD of MS2 coat protein [3] | apparent KD of MS2 coat protein (input ligand: FMN 200 uM) | apparent KD of MS2 coat protein [4] | apparent KD of MS2 coat protein (input ligand: none)
1 | CAAGUACAUGAGGAUCACCCAUGUAGAAGAGAUGCAGGAUAUGUGGGAAAAGGGAGUGUAACAGAAGGGCAAGGAG [JR_SS!_Sub018] (puzzle: Same State 1) | 50 nM | 55.4 nM | 59.9 nM |  |  | 
2 | CAGCGCUGUCGAGAGGAUAUGCGGUGAUGGACAUGAGGAUCACCCAUGUUAGCGAUAGCAUUACGGUAGAAGGCUCUGCAGCUGC [Soteed - 1] (puzzle: Same State 2) |  | 78.9 nM |  |  |  | 
3 | CAGCUCGUGUGAGGAUAUGCCGCCGUUUCGGCUGCAGAAGGUGCUACGUUACAUGAGGAUCACCCAUGUCUCUGUUGUUUCGUG [salish99_SSNG1_r04_963] (Eterna round: R96, puzzle: Same State NG 1) |  |  |  | 20.8 nM | 17.9 nM | 23.2 nM
4 | CCGCGGGUAUCACAGGAUAUACUCAUAAUUACAUGAGGAUCACCCAUGUGACGGAAUUCCGGUGCGUAGAAGGGUGAUGGACCGC [Onquorbe] (puzzle: Same State 2) | 19.3 nM | 52.1 nM | 65.7 nM |  |  | 
5 | CCGGUAUAUGGAGGAUAUGGAGCCUUAUUGGCUCCAGAAGGCUAAUAACAUGAGGAUCACCCAUGUCCGGCGGUCAAUAGACCG [Eli NG1ss - 59] (Eterna round: R96, puzzle: Same State NG 1) |  |  |  | 66.7 nM | 113 nM | 336 nM
6 | CCGUAGAUGGUAGGAUAUGGAGCCUUAUUGGCUCCAGAAGGAUCUAAAACAUGAGGAUCACCCAUGUCGGCGGUCAAUAGACCG [Eli NG1ss - 83] (Eterna round: R96, puzzle: Same State NG 1) |  |  |  | 67.2 nM | 65.1 nM | 107 nM
7 | CCGUCGGAGGUAGGAUAUGGAGCCUUAUUGGCUCCAGAAGGAUCAAAUAAAUUAACAAACAUGAGGAUCACCCAUGUCCGACGG [Eli NG1ss - 86] (Eterna round: R96, puzzle: Same State NG 1) |  |  |  | 156 nM | 331 nM | 558 nM
8 | CCGUGGUAACAUGAGGAUCACCCAUGUACAAGCUUUUUGCUCGUUGGAUCCGGCGCGCCCAUUAUGGGCGCGCCGGA [Nishu_Seq2] (puzzle: Sensor for hsa-mir-208a version 2) | 26.2 nM | 16 nM | 25.6 nM |  |  | 
9 | CGCAUCAUUGUUACAUGAGGAUCACCCAUGUUUUCGAGUGGAGAGGAUAUCGUAACAGUAUAAAUCGAGAAGGCUCUAUAGUAU [JR_SSNG3_Sub082] (Eterna round: R96, puzzle: Same State NG 3) |  |  |  | 34.1 nM | 77.1 nM | 81.6 nM
10 | CGCCAACGCAUAGGAUAUGCUUGUGUGGAUCGGGCAGAAGGGUGGUUGGAAACAUGAGGAUCACCCAUGUAAAAGUAAGAAAAU [Rierinqu] (Eterna round: R96, puzzle: Same State NG 1) |  |  |  | 1450 nM | 926 nM | 668 nM
11 | CGCCAGAGAACAGGAUAUGGGCCGCGGCCUAAGGGCUGCUAACUCACAUGAGGAUCACCCAUGUCCCAGAAGGGUUCCUGGCUG [Gexeso] (Eterna round: R96, puzzle: Same State NG 2) |  |  |  | 602 nM | 31.4 nM | 45.8 nM
12 | CGUAGGAUAUGCAGAGGAUCACCCUGUAGAAGGACGAUUACGUAGGAUAUGCAGAGGAUCACCCUGUAGAAGGACGACUAAUCU [pwkr ssNG3 DX 2xF5 +2xFMN.2] (Eterna round: R96, puzzle: Same State NG 3) |  |  |  | 174 nM | 105 nM | 129 nM
13 | CGUCCGGCCUGAGCUGGACGGAAGCAUGUACAUGAGGAUCACCCAUGUUCAUGUGCAGGCUUUUUGCUCGUCUUGUG [JL-shm-2.08 JL mod] (puzzle: Sensor for hsa-mir-208a) | 105 nM | 12.5 nM | 127 nM |  |  | 
14 | CGUUCUUACUCGGUACGGUGAGUAGAGGAACAUGAGGAUCACCCAUGUUUGAGCUUUUUGCUCGUGAUUAACAGUUG [JR_SHM208a_Sub015] (puzzle: Sensor for hsa-mir-208a) | 92.2 nM | 102 nM | 149 nM |  |  | 
15 | CUAAACAGAGGAGGAUAUGCAGAGGAUCACCCUGUAGAAGGCCACAGAGGAGGAUAUGCAGAGGAUCACCCUGUAGAAGGCCAC [pwkr ssNG DX.7] (Eterna round: R96, puzzle: Same State NG 1) |  |  |  | 121 nM | 210 nM | 222 nM
16 | CUCAAACAUGAGGAUCACCCAUGUGUUGUCGUGGGAGGAUAUCCCAGUUCGGUGGCGUCGGGAGAAGGCCUAUGUC (Eterna round: R96, puzzle: Same State 1) |  |  |  | 67.8 nM | 106 nM | 129 nM
17 | CUCAAACAUGAGGAUCACCCAUGUGUUGUCGUGGGAGGAUAUCCCAGUUCGGUGGCGUCGGGAGAAGGCCUAUGUC [× ×•×ª×• ×ž×“×™× ×” × ×—×ª-16] (puzzle: Same State 1) | 50.4 nM | 100 nM | 129 nM |  |  | 
18 | CUCCCAGCGGGAGGAUAUGGUGCCUUGUUGGUGCUAGAAGGUCCAACAUGAGGAUCACCCAUGUGGGAGUGGUUGAGAGACCUC [SS NG10LRO12] (Eterna round: R96, puzzle: Same State NG 1) |  |  |  | 218 nM | 166 nM | 278 nM
19 | CUGAAAUGUCAAGGAUAUCACGUCGAUUAGACGUGAGAAGGUGAUCUACACAUGAGGAUCACCCAUGUGUUACAUGGGAGUCAG [Brourd's SSNG1/1-A2 mod 17] (Eterna round: R96, puzzle: Same State NG 1) |  |  |  | 325 nM | 448 nM | 601 nM
20 | CUGAAAUGUCAAGGAUAUCACGUCGAUUAGACGUGAGAAGGUGAUCUGCACAUGAGGAUCACCCAUGUGUUACAUGGGAAUCAG [Brourd's SSNG1/1-A2 mod 15] (Eterna round: R96, puzzle: Same State NG 1) |  |  |  | 289 nM | 90.3 nM | 624 nM
21 | CUGAGCAAUCAAGGAUAUCACGUCGAUUAGACGUGAGAAGGUGAUCAUCACAUGAGGAUCACCCAUGUGUUACAUGGAGCUCAG [Brourd's SSNG1/1-A2 mod 4] (Eterna round: R96, puzzle: Same State NG 1) |  |  |  |  | 610 nM | 
22 | CUGCAACAUGAGGAUCACCCAUGUAACCCAAUUAUAGGAUAUGUGAUGGUGAUCGACAUGACAGAAGGGUGAUUGG [Arinra] (Eterna round: R96, puzzle: Same State 1) |  |  |  | 174 nM | 29.7 nM | 41.8 nM
23 | CUGCAACAUGAGGAUCACCCAUGUAACCCAAUUAUAGGAUAUGUGAUGGUGAUCGACAUGACAGAAGGGUGAUUGG [Arinra] (puzzle: Same State 1) | 199 nM | 99.4 nM | 46.4 nM |  |  | 
24 | CUGGCGCGCACAGGAUAUGCGGCCGGCAAGGUGGCAGAAGGGUGAUAAACAGACGACAUGAGGAUCACCCAUGUCGCAAAGAAU [Arsobe] (Eterna round: R96, puzzle: Same State NG 1) |  |  |  | 214 nM | 71.3 nM | 85.4 nM
25 | CUUUUUAAUGCAGGAUAUGAUCAACAUGAGGAUCACCCAUGUGGCGUUGUGAGUAGGGAGAGUGAUCAGAAGGGCGUCUCCUCG [SS-NG2-LRO09] (Eterna round: R96, puzzle: Same State NG 2) |  |  |  | 43.9 nM | 38 nM | 56.6 nM
26 | CUUUUUAAUGCAGGAUAUGAUCAACAUGAGGAUCACCCAUGUGGUGUUGUGAGUAAGGAGAGUGAUCAGAAGGGCAUCUCCUCA [SS-NG2-LRO06] (Eterna round: R96, puzzle: Same State NG 2) |  |  |  | 186 nM | 73.6 nM | 83.6 nM
27 | GAAAAACAUGAGGAUCACCCAUGUGAGAAUAUGGGAGGAUAUUCAAAGACGAAAGUCAAAGAAGAAGGCCUAAAAG [Mat - Same State 1 - Eli mod - 37] (Eterna round: R96, puzzle: Same State 1) |  |  |  | 33.4 nM | 143 nM | 211 nM
28 | GAAAGCAUGGGAGGAUAUAGCCUCUAUGGAGGGCUAGAAGGCCCUGGCCACAUGAGGAUCACCCAUGUGAAAUAAAUAGAAGAA [MOD Raarceza] (Eterna round: R96, puzzle: Same State NG 1) |  |  |  | 453 nM | 2.74 nM | 188 nM
